“And” between values parts separate entries of the source, which are not always exact repeats. Equal values may be shown once.
What was measured:
[1] = biological target: TaXPD 100C-238C C (crosslinked) (Thermoplasma acidophilum) (UniProt Q9HM14); test: fluorescence anisotropy; conditions: Anisotropy: 20 mM MES pH 6.4, 1 mM DTT, 1 mM MgCl2, 100 nM DNA, +/- 1 mM AMPPNP, temperature not stated; trapping: 20 mM Tris-HCl pH 8.3-8.5, 50 mM NaCl, 4 C …
[2] = biological target: TaXPD 107C-312C C (crosslinked) (Thermoplasma acidophilum) (UniProt Q9HM14); test: fluorescence anisotropy; conditions: Anisotropy: 20 mM MES pH 6.4, 1 mM DTT, 1 mM MgCl2, 100 nM DNA, +/- 1 mM AMPPNP, temperature not stated; trapping: 20 mM Tris-HCl pH 8.3-8.5, 50 mM NaCl, 4 C …

TACGACAGAGAAGAGACGAGCATTTTTGCTCGGAAGGA [3'-fluorescein hairpin DNA with 5' overhang]
Kd [1]: 0.6 µM and 0.5 µM | Kd [2]: 0.3 µM and 0.4 µM

Source: publication PMC4824113
